Measured values reported in the supplement of paper PMC10126150.
± gives the standard deviation of the averaged measurements.

Tested on: ATP
Assay: switch fluorescence ratio, 500 uM ATP over buffer (Cy3 cluster intensity, sum of 5 cycles each) (fold (ratio)); higher = stronger signal-on switching upon ATP binding; sequences stand for … in TCGTCGGCAGCGTCAGATGTGTATAAGAGACAGTTTTTTTTTTTTTTTTTTTTTTTTT…TC
Settings: aptamer strand: ATP DNA aptamer (quencher-CACCTGGGGGAGTATTGCGGAGGAAGG + anchor), 100 nM annealed; ATP concentration: 500 uM
Method in brief: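 Exposure to 500 uM ATP lasted 15 min at 22 °C before imaging, and a selection-buffer image was taken beforehand, for Cy3-labelled switching-strand clusters on a modified Illumina MiSeq flow-cell annealed to 100 nM quencher-labelled ATP aptamer. Five buffer/ATP cycles were run with NaOH stripping and re-annealing between them. The fluorescence ratio per cluster is summed target-cycle over summed buffer-cycle Cy3 intensity, averaged per switch-domain sequence. Clusters outside 100-1000 RFU were excluded.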

Row | Sequence | switch fluorescence ratio
1 | TGAAGGACGT | 0.996 ± 0.019
2 | TGAAGGAGGG | 1.02 ± 0.06
3 | TGAAGGCCGG | 0.995 ± 0.033
4 | TGAAGGCGGG | 1 ± 0.039
5 | TGAAGGGGGC | 0.994 ± 0.045
6 | TGAAGGGGGT | 0.999 ± 0.032
7 | TGAAGGGTCA | 0.968 ± 0.022
8 | TGAAGGTACA | 1.034 ± 0.0031
9 | TGAAGGTTAC | 1.02 ± 0.012
10 | TGAAGTAACA | 1.06 ± 0.038
11 | TGAAGTAAGC | 1.09 ± 0.12
12 | TGAAGTAATC | 1.42 ± 0.43
13 | TGAAGTATGG | 0.9517 ± 0.0024
14 | TGAAGTCCTT | 1.005 ± 0.0037
15 | TGAAGTGTTG | 0.99 ± 0.019
16 | TGAATAAGAG | 1.01 ± 0.026
17 | TGAATATTGT | 1.04 ± 0.051
18 | TGAATCTAGA | 1.01 ± 0.019
19 | TGAATGATGG | 1.02 ± 0.015
20 | TGAATGTGGT | 0.97 ± 0.014
21 | TGAATTATGT | 0.985 ± 0.048
22 | TGAATTCTTT | 0.968 ± 0.041
23 | TGAATTTAT | 0.998 ± 0.012
24 | TGACAAAG | 0.9776 ± 0.0029
25 | TGACAAAGA | 1 ± 0.022

Row | Sequence | switch fluorescence ratio
26 | TGACAATGTT | 0.994 ± 0.052
27 | TGACACTTAA | 1.07 ± 0.096
28 | TGACAGGATT | 0.9946 ± 0.0083
29 | TGACAGGGCT | 1.01 ± 0.011
30 | TGACCGCCGT | 1.06 ± 0.035
31 | TGACGAAGCG | 1.05 ± 0.035
32 | TGACGAGCTG | 1.03 ± 0.035
33 | TGACGGAGAA | 1.01 ± 0.015
34 | TGACGGCCTG | 1.06 ± 0.022
35 | TGACGGGAAT | 1.01 ± 0.013
36 | TGACGGGCGG | 1 ± 0.015
37 | TGACGGTGTC | 1.02 ± 0.0035
38 | TGACGTCAGT | 0.972 ± 0.014
39 | TGACTATGAT | 0.998 ± 0.015
40 | TGACTATTAA | 0.9845 ± 0.0022
41 | TGACTCACGG | 1.08 ± 0.029
42 | TGACTTCGCT | 1.2 ± 0.18
43 | TGACTTGGAC | 1.02 ± 0.013
44 | TGACTTTGTG | 1.02 ± 0.044
45 | TGACTTTTTC | 1.03 ± 0.016
46 | TGAGAAAAAT | 0.973 ± 0.018
47 | TGAGAACCCG | 1.02 ± 0.051
48 | TGAGAGAGGG | 0.983 ± 0.012
49 | TGAGAGATTG | 0.9773 ± 0.007
50 | TGAGAGTAT | 1.01 ± 0.034

Row | Sequence | switch fluorescence ratio
51 | TGAGAGTGGG | 1.01 ± 0.021
52 | TGAGATATTG | 0.997 ± 0.018
53 | TGAGATCGCG | 1.004 ± 0.0018
54 | TGAGATGGTG | 0.9739 ± 0.0014
55 | TGAGATTTAG | 0.988 ± 0.026
56 | TGAGATTTTT | 0.975 ± 0.048
57 | TGAGCAGCGG | 1.01 ± 0.044
58 | TGAGCCTTAG | 1.09 ± 0.05
59 | TGAGCGGGTG | 1.01 ± 0.01
60 | TGAGCGTG | 0.9816 ± 0.0078
61 | TGAGCTAGGG | 1.005 ± 0.0026
62 | TGAGCTAGGT | 1 ± 0.033
63 | TGAGCTGGCT | 0.989 ± 0.021
64 | TGAGGAGGTT | 0.981 ± 0.072
65 | TGAGGCCGAA | 1.015 ± 0.0088
66 | TGAGGCTAGG | 1.02 ± 0.017
67 | TGAGGGAGGG | 1.01 ± 0.017
68 | TGAGGGATGG | 1.01 ± 0.017
69 | TGAGGGGATC | 1.02 ± 0.015
70 | TGAGGGGGAT | 1 ± 0.051
71 | TGAGGGGGGT | 0.976 ± 0.025
72 | TGAGGGGTAA | 0.993 ± 0.042
73 | TGAGGGGTCA | 1.002 ± 0.0076
74 | TGAGGGGTTG | 1 ± 0.036
75 | TGAGGGTTGG | 1.01 ± 0.027

Row | Sequence | switch fluorescence ratio
76 | TGAGGGTTGT | 1.01 ± 0.046
77 | TGAGGTAACG | 0.992 ± 0.029
78 | TGAGGTAGGA | 0.9781 ± 0.0014
79 | TGAGGTCACG | 0.982 ± 0.036
80 | TGAGGTCGCG | 0.9759 ± 0.0035
81 | TGAGGTGTAT | 0.98719 ± 0.00023
82 | TGAGGTTGTC | 0.981 ± 0.09
83 | TGAGGTTTGA | 0.986 ± 0.02
84 | TGAGTACAGC | 1.03 ± 0.092
85 | TGAGTACGGG | 0.9844 ± 0.0025
86 | TGAGTATAGT | 1.01 ± 0.035
87 | TGAGTCCTCG | 0.995 ± 0.064
88 | TGAGTCTGTT | 1.01 ± 0.028
89 | TGAGTGACG | 1.0136 ± 0.00054
90 | TGAGTGATTT | 1.02 ± 0.031
91 | TGAGTGGGGC | 1.03 ± 0.025
92 | TGAGTTATTT | 1.01 ± 0.012
93 | TGAGTTCAAC | 1.04 ± 0.086
94 | TGAGTTCGGC | 1.03 ± 0.015
95 | TGAGTTGGGT | 0.986 ± 0.019
96 | TGAGTTTGTT | 1.021 ± 0.0092
97 | TGAGTTTTGG | 1.02 ± 0.015
98 | TGAGTTTTTG | 0.998 ± 0.022
99 | TGATAAAGAT | 1.02 ± 0.034
100 | TGATAAATAC | 1.33 ± 0.069
